Laboratory results published in patent EP3386536A2 (dated 2018).

Target: T1, human FcγRIIIA F158 (human, UniProt P08637 17-208)
T1 construct: also called CD16a F158 variant
Test: BLI (Octet Red 96), FcγR on anti-his tag biosensor, conjugate in solution, avidity binding model

T1 sequence (P08637 17-208 limits assumed): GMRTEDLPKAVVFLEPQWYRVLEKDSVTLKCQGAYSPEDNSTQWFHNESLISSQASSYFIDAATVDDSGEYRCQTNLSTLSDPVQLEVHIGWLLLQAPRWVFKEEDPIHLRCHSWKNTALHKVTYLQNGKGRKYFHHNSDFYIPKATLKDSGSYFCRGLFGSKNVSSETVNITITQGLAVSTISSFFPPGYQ

B1: SBT040-G2 ATAC11 (antibody, human IgG2, kappa)
heavy: not shown
light: DIQMTQSPSSVSASVGDRVTITCRASQGIYSWLAWYQQKPGKAPNLLIYTASTLQSGVPSRFSGSGSGTDFTLTISSLQPEDFATYYCQQANIFPLTFGGGTKVEIKRTVAAPSVFIFPPSDEQLKSGTASVVCLLNNFYPREAKVQWKVDNALQSGNSQESVTEQDSKDSTYSLSSTLTLSKADYEKHKVYACEVTHQGLSSPVTKSFNRGEC
modifications: ATAC11 may also sit on light chain cysteines; sites not stated; ATAC11 (maleimide linker with gardiquimod) conjugated by cysteine-based bioconjugation; sites not stated; molar ratio about 4.0
notes: also called SBT-040-G2WT conjugated to ATAC11
B1 was tested, and the “fold change against the unconjugated SBT040-G2” value was no more than 2 fold.
